Laboratory results published in IntAct's records for PubMed 23393263.

B1: Protein E6 (Human papillomavirus type 16), P03126 (parent)
chain: MHQKRTAMFQDPQERPRKLPQLCTELQTTIHDIILECVYCKQQLLRREVYDFAFRDLCIVYRDGNPYAVCDKCLKFYSKISEYRHYCYSLYGTTLEQQYNKPLCDLLIRCINCQKPLCPEEKQRHLDKKQRFHNIRGRWTGRCMSCCRSSRTRRETQL
B2: Protein E6 (Bovine papillomavirus type 1), P06931 (parent)
chain: MDLKPFARTNPFSGLDCLWCREPLTEVDAFRCMVKDFHVVIREGCRYGACTICLENCLATERRLWQGVPVTGEEAELLHGKTLDRLCIRCCYCGGKLTKNEKHRHVLFNEPFCKTRANIIRGRCYDCCRHGSRSKYP

How the values were obtained:
[1] = variants of: B1; settings: with ube3a_human UBE3A
[2] = variants of: B1; settings: with ube3a_human UBE3A; remark: listed apart in the source
paxi_human PXN, P49023 [3] = variants of: B2; settings: with paxi_human PXN
Sequence of paxi_human PXN, P49023 (P49023 whole entry): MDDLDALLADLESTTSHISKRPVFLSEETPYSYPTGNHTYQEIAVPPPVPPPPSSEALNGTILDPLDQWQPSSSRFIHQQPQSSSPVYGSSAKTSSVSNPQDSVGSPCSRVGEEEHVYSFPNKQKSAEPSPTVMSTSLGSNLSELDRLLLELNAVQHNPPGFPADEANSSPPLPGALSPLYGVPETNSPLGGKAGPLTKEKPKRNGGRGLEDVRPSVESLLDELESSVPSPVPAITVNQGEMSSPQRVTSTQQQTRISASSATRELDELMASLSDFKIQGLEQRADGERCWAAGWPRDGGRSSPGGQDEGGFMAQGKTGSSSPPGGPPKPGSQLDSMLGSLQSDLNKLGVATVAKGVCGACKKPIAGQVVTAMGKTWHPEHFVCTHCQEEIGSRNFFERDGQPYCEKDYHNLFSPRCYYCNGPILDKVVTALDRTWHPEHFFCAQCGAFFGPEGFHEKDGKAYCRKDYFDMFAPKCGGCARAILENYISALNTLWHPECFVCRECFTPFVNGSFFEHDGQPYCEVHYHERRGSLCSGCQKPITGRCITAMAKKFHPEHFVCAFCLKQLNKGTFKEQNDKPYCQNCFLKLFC

paxi_human PXN, P49023 [4] = variants of: B2; settings: with paxi_human PXN; remark: listed apart in the source

L57A
effect of a mutation on the interaction [1]: disrupting interaction strength

R138A
effect of a mutation on the interaction [1]: disrupting interaction strength | effect of a mutation on the interaction [2]: decreasing interaction strength

R62A
effect of a mutation on the interaction [1]: decreasing interaction strength

S78R
effect of a mutation on the interaction [1]: decreasing interaction strength

R17A
effect of a mutation on the interaction [1]: decreasing interaction strength

R109A
effect of a mutation on the interaction [1]: disrupting interaction strength | effect of a mutation on the interaction [2]: decreasing interaction strength

L57E
effect of a mutation on the interaction [2]: disrupting interaction strength

F37S
effect of a mutation on the interaction (paxi_human PXN, P49023 [3]): decreasing interaction strength | effect of a mutation on the interaction (paxi_human PXN, P49023 [4]): disrupting interaction strength

L58S
effect of a mutation on the interaction (paxi_human PXN, P49023 [3]): decreasing interaction strength | effect of a mutation on the interaction (paxi_human PXN, P49023 [4]): disrupting interaction strength

R89A
effect of a mutation on the interaction (paxi_human PXN, P49023 [3]): decreasing interaction strength | effect of a mutation on the interaction (paxi_human PXN, P49023 [4]): disrupting interaction strength

R89L
effect of a mutation on the interaction (paxi_human PXN, P49023 [3]): decreasing interaction strength | effect of a mutation on the interaction (paxi_human PXN, P49023 [4]): disrupting interaction strength

R116D
effect of a mutation on the interaction (paxi_human PXN, P49023 [3]): decreasing interaction strength | effect of a mutation on the interaction (paxi_human PXN, P49023 [4]): disrupting interaction strength

R116G
effect of a mutation on the interaction (paxi_human PXN, P49023 [3]): decreasing interaction strength | effect of a mutation on the interaction (paxi_human PXN, P49023 [4]): disrupting interaction strength

R121G
effect of a mutation on the interaction (paxi_human PXN, P49023 [3]): decreasing interaction strength | effect of a mutation on the interaction (paxi_human PXN, P49023 [4]): disrupting interaction strength
